Stoichiometry N data for one substance are collected here from PMC2602759.

Values joined by “and” are separate entries in the source; they are usually repeats but may differ in a detail not shown here. Equal entries are not always repeated.

By stoichiometry N is commonly meant a count of units in the complex or per binding partner.

The target of assay [1] is HIV-1 integrase (IN) (HIV-1). Description: cross-linking.
Assay [2] addresses HIV-1 integrase (IN) (HIV-1). Description: SEC. In general terms: SEC sorts molecules by how far they enter the pores of the column.

Take HIV-1 integrase (IN) (enzyme): the stoichiometry N in assay [1] was 2; in assay [2], 2 and 4.
